The target of the test is SD93 NA K385N/N387K mutant, recombinant NA head domain (residues 82-469) fused to a VASP tetramerization domain (not stated | influenza A virus A/Shandong/9/1993 (H3N2)). Nature of the test: SEC; HiLoad 16/100 Superdex 200 prep grade, 20 mM Tris-HCl pH 8.0, 100 mM NaCl, 10 mM CaCl2; NA head domain fused to a VASP tetramerization domain. A general note: Size exclusion chromatography separates by hydrodynamic size, large species first.

In general, stoichiometry N refers to the number of molecules, sites or subunits per partner or assembly. Regarding “SD93 NA K385N/N387K mutant, recombinant NA head domain (residues 82-469) fused to a VASP tetramerization domain (domain or fragment)”, the stoichiometry N came out at 4.

These data come from PMC9616408.
